Legend:
[1] = biological target: T1, amphyphisin SH3 (AMPH_HUMAN), P49418; assay: SPOT array
T1 chain: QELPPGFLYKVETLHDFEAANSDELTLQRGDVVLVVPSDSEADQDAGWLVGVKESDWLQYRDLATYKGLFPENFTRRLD

[2] = biological target: endophilin SH3 (SH3G2_HUMAN), Q99962; assay: SPOT array

Binder | normalised SPOT signal, Boehringer light units (BLU); mean over the file's lines of this peptide [1] | normalised SPOT signal, Boehringer light units (BLU); mean over the file's lines of this peptide [2]
SAHTPGRPPRVTKD [Q9UGB8 794-807] | 1950 | 268
RVKYIKRPGAVLEA [O00763 939-952] | 27.1 | 36.2
SAKELRRPPPRSPQ [Q9NPN8 118-131] | 33.8 | 116
RVPIPPRPTRPHVQ [Q07912 741-754] | 9630 | 19700
RYLILKRPGFQEHD [Q9NP17 122-135] | 23.9 | 228
SALRPKRPETPKQT [Q9UIG2 1726-1739] | 588 | 723
RVPIPPRPVKPDYR [Q9UD05 286-299] | 646 | 6030
AVWSPRRPTATRDP [Q8WU34 71-84] | 36.2 | 97.9
RYLAISRPLRARVL [O43193 136-149] | 1320 | 943
RWKEPKRPRPLKLS [Q92536 412-425] | 56.9 | 419
RVEELSRPKRFYLE [Q9P2T0 193-206] | 225 | 210
RYLGITRPHKMLTT [Q99412 18-31] | 102 | 231
RTEGFWRPLRGVNV [Q9NYZ2 96-109] | 952 | 107
RVSWIRRPPGKALE [P01814 35-48] | 15 | 326
SAGRPKRPHARRAL [Q14764 501-514] | 24.8 | 702
AVQFLRRPKTITRV [O95473 15-28] | 15.3 | 117

Binder | normalised SPOT signal, Boehringer light units (BLU); mean over the file's lines of this peptide [1] | normalised SPOT signal, Boehringer light units (BLU); mean over the file's lines of this peptide [2]
AVSAPKRPRVAPLQ [Q92817 837-850] | 59 | 240
RVLHLRRPGGPPHV [Q96DQ6 175-188] | 21.6 | 55.3
RYWAISRPFRYKRK [P21918 138-151] | 1070 | 417
RTPAPRRPLQRRRP [Q9GZW5 220-233] | 789 | 12000
SAPPPQRPFRVSDH [Q9UHD4 30-43] | 4530 | 5270
RSWWPQRPGRWLSR [Q9NRK9 487-500] | 3180 | 558
RVIGLLRPLKDVTV [Q10466 5697-5710] | 205 | 261
RTLGLRRPVHSSSI [Q9P1Y6 400-413] | 20.6 | 49.2
RVLSLLRPWRPLRA [Q9NV38 3-16] | 1430 | 366
RTPTPDRPPRSAWG [Q9H0S3 22-35] | 2030 | 395
RVHRLPRPLKQRML [Q9UQ05 500-513] | 165 | 121
RTKRFKRPQFSPTG [Q96CC9 51-64] | 33.7 | 12.5
SAPPPPRPPEEPAP [Q96BQ9 4-18] | 85.5 | 65.5
SAPGPRRPAPALLA [Q96DL6 316-329] | 412 | 3420
SAGKFKRPIIAGME [P21453 335-348] | 42.5 | 46.1

Source: PMC314469, “Protein Interaction Networks by Proteome Peptide Scanning” (PLoS Biology, 2004)
